Experimental data reported in patent publication US20210403591A1.
Residue numbers refer to the chain shown, from its start. Blank lines part the entries; values can stand above or below the binder they belong to.

Experiments:
[1] = molecular target: mTfR-1 S255A on Expi293 cells (mouse) (UniProt Q62351); experiment: FACS, transfected Expi293 cells
[2] = molecular target: mTfR-1 N253A on Expi293 cells (mouse) (UniProt Q62351); experiment: FACS, transfected Expi293 cells
[3] = molecular target: mTfR-1 L256A on Expi293 cells (mouse) (UniProt Q62351); experiment: FACS, transfected Expi293 cells; mutant poorly expressed
Chain of mTfR-1 L256A on Expi293 cells (mouse) (Q62351 whole entry L256A): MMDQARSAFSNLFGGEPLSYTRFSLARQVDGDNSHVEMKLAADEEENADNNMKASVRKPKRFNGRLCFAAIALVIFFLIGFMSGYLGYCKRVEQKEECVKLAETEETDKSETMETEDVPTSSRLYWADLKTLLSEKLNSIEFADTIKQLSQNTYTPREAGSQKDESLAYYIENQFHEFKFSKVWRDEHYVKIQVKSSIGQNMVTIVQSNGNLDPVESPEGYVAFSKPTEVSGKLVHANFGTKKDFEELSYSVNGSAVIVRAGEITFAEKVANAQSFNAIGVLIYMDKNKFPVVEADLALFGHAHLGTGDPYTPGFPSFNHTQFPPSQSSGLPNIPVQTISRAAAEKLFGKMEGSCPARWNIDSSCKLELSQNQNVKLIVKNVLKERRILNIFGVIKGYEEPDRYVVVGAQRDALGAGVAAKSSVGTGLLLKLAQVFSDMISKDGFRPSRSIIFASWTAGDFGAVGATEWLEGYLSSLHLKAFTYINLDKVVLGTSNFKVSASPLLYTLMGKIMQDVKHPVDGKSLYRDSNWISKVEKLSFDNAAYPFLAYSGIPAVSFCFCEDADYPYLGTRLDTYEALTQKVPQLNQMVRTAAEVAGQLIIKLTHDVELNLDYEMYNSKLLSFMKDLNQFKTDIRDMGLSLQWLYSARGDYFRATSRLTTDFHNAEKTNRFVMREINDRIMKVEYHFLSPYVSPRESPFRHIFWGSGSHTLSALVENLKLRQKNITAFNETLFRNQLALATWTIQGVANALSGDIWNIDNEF

Chain of mTfR-1 S255A on Expi293 cells (mouse) (Q62351 whole entry S255A): as the sequence (Q62351 whole entry L256A) above, with S255A, A256L counted along it
Chain of mTfR-1 N253A on Expi293 cells (mouse) (Q62351 whole entry N253A): as the sequence (Q62351 whole entry L256A) above, with N253A, A256L counted along it

% double-positive cells vs WT [1]: 19%
% double-positive cells vs WT [2]: 27%
B1: Clone C variant 13 VNAR-hFc (Fc fusion, not shown: a dimerising Fc or GST)
chain: ARVDQTPQTITKETGESLTINCVLRDSNCALSSTYWYRKKSGSTNEENISKGGRYVETVNSGSKSFSLRINDLTVEDSGTYRCNVVQYPQQDNYFWCDVYGDGTAVTVN

% double-positive cells vs WT [3]: 1%
B2: Clone C VNAR-hFc fusion (Fc fusion, not shown: a dimerising Fc or GST)
chain: B1 chain with Q90S, Q91Y, D92N
